Data from the RNAGym collection of RNA variant scans (doi:10.1093/molbev/msab373).

B1: Azoarcus group I ribozyme (parent)
chain: GUGCCUUGCGCCGGGAAACCACGCAAGGGAUGGUGUCAAAUUCGGCGAAACCUAAGCGCCCGCCCGGGCGUAUGGCAACGCCGAGCCAAGCUUCGGCGCCUGCGCCGAUGAAGGUGUAGAGACUAGACGGCACCCACCUAAGGCAAACGCUAUGGUGAAGGCAUAGUCCAGGGAGUGGCGAAAGUCACACAAACCGG

Variants of: B1
Test: reverse-splicing fitness (ratio to wild type); higher = more active; in vitro selection; Mg2+ level not given
How it was run: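 An in vitro group I ribozyme library with randomized positions was T7-transcribed and gel-purified. In triplicate, 10 pmol RNA in EPPS pH 7.5 was reacted with 50 pmoles of a 30-nt RNA substrate for 1 h at 37 °C across several added MgCl2 levels (1–48 mM), then stopped with EDTA. Products were reverse transcribed from a substrate-complementary primer, PCR-amplified and sequenced (HiSeq 4000). Fitness is a variant's read proportion after selection over that before, normalised to wild type.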

Point of comparison: GUGCCUUGCGCCGGGAAACCACGCAAGGGAUGGUGUCAAAUUCGGCGAAACCUAAGCGCCCGCCCGGGCGUAUGGCAACGCGGAGCCAAGCUUCGGCGCCUGCGCCGAUGCAGGUGUAGCGACUAGACGGCACCCACCUAAGGCGAACGCUAUGGUGAAGGCAUAGUCGAGGGAGGGGCGAAAGUCACACAAACCGG, reverse-splicing fitness 0.00618. Against it:
- GUGCCUUGCGCCGGGAAACCACGCAAGGGAUGGUGUCAAAUUCGGCGAAACCUAAGCGCCCGCCCGGGCGUAUGGCAACGCGGAGCCAAGCUUCGGCGCCUGCGCCGAUGCAGGUGUAGCGACUAGACGGCACCCACCUAAGGCGAACGCUAUGGUGAAGGCAUAGUCCAGGGAGAGGCGAAAGUCACACAAACCGG — higher, 0.0172
- GUGCCUUGCGCCGGGAAACCACGCAAGGGAUGGUGUCAAAUUCGGCGAAACCUAAGCGCCCGCCCGGGCGUAUGGCAACGCGGAGCCAAGCUUCGGCGCCUGCGCCGAUGCAGGUGUAGCGACUAGACGGCACCCACCUAAGGCGAACGCUAUGGUGAAGGCAUAGUCCAGGGAGGGGCGAAAGUCACACAAACCGG — higher, 0.00761
- GUGCCUUGCGCCGGGAAACCACGCAAGGGAUGGUGUCAAAUUCGGCGAAACCUAAGCGCCCGCCCGGGCGUAUGGCAACGCGGAGCCAAGCUUCGGCGCCUGCGCCGAUGCAGGUGUAGCGACUAGACGGCACCCACCUAAGGCGAACGCUAUGGUGAAGGCAUAGUCCAGGGAGCGGCGAAAGUCACACAAACCGG — higher, 0.0314
- GUGCCUUGCGCCGGGAAACCACGCAAGGGAUGGUGUCAAAUUCGGCGAAACCUAAGCGCCCGCCCGGGCGUAUGGCAACGCGGAGCCAAGCUUCGGCGCCUGCGCCGAUGCAGGUGUAGCGACUAGACGGCACCCACCUAAGGCGAACGUUAUGGUGAAGGCAUAGUCUAGGGAGAGGCGAAAGUCACACAAACCGG — higher, 0.0156
- GUGCCUUGCGCCGGGAAACCACGCAAGGGAUGGUGUCAAAUUCGGCGAAACCUAAGCGCCCGCCCGGGCGUAUGGCAACGCGGAGCCAAGCUUCGGCGCCUGCGCCGAUGCAGGUGUAGCGACUAGACGGCACCCACCUAAGGCGAACGUUAUGGUGAAGGCAUAGUCUAGGGAGCGGCGAAAGUCACACAAACCGG — higher, 0.0131
- GUGCCUUGCGCCGGGAAACCACGCAAGGGAUGGUGUCAAAUUCGGCGAAACCUAAGCGCCCGCCCGGGCGUAUGGCAACGCGGAGCCAAGCUUCGGCGCCUGCGCCGAUGCAGGUGUAGCGACUAGACGGCACCCACCUAAGGCGAACGUUAUGGUGAAGGCAUAGUCUAGGGAGGGGCGAAAGUCACACAAACCGG — higher, 0.00732
- GUGCCUUGCGCCGGGAAACCACGCAAGGGAUGGUGUCAAAUUCGGCGAAACCUAAGCGCCCGCCCGGGCGUAUGGCAACGCGGAGCCAAGCUUCGGCGCCUGCGCCGAUGCAGGUGUAGCGACUAGACGGCACCCACCUAAGGCGAACGUUAUGGUGAAGGCAUAGUCCAGGGAGAGGCGAAAGUCACACAAACCGG — higher, 0.0138
- GUGCCUUGCGCCGGGAAACCACGCAAGGGAUGGUGUCAAAUUCGGCGAAACCUAAGCGCCCGCCCGGGCGUAUGGCAACGCGGAGCCAAGCUUCGGCGCCUGCGCCGAUGCAGGUGUAGCGACUAGACGGCACCCACCUAAGGCGAACGUUAUGGUGAAGGCAUAGUCCAGGGAGCGGCGAAAGUCACACAAACCGG — higher, 0.0215
- GUGCCUUGCGCCGGGAAACCACGCAAGGGAUGGUGUCAAAUUCGGCGAAACCUAAGCGCCCGCCCGGGCGUAUGGCAACGCGGAGCCAAGCUUCGGCGCCUGCGCCGAUGCAGGUGUAGCGACUAGACGGCACCCACCUAAGGCGAACGUUAUGGUGAAGGCAUAGUCCAGGGAGGGGCGAAAGUCACACAAACCGG — higher, 0.00788
- GUGCCUUGCGCCGGGAAACCACGCAAGGGAUGGUGUCAAAUUCGGCGAAACCUAAGCGCCCGCCCGGGCGUAUGGCAACGCGGAGCCAAGCUUCGGCGCCUGCGCCGAUGCAGGUGUAGCGACUAGACGGCACCCACCUAAGGCUAACGAUAUGGUGAAGGCAUAGUCAAGGGAGAGGCGAAAGUCACACAAACCGG — higher, 0.0163
- GUGCCUUGCGCCGGGAAACCACGCAAGGGAUGGUGUCAAAUUCGGCGAAACCUAAGCGCCCGCCCGGGCGUAUGGCAACGCGGAGCCAAGCUUCGGCGCCUGCGCCGAUGCAGGUGUAGCGACUAGACGGCACCCACCUAAGGCUAACGAUAUGGUGAAGGCAUAGUCAAGGGAGUGGCGAAAGUCACACAAACCGG — higher, 0.00835
- GUGCCUUGCGCCGGGAAACCACGCAAGGGAUGGUGUCAAAUUCGGCGAAACCUAAGCGCCCGCCCGGGCGUAUGGCAACGCGGAGCCAAGCUUCGGCGCCUGCGCCGAUGCAGGUGUAGCGACUAGACGGCACCCACCUAAGGCUAACGAUAUGGUGAAGGCAUAGUCCAGGGAGUGGCGAAAGUCACACAAACCGG — higher, 0.011
- GUGCCUUGCGCCGGGAAACCACGCAAGGGAUGGUGUCAAAUUCGGCGAAACCUAAGCGCCCGCCCGGGCGUAUGGCAACGCGGAGCCAAGCUUCGGCGCCUGCGCCGAUGCAGGUGUAGCGACUAGACGGCACCCACCUAAGGCGAACGCUAUGGUGAAGGCAUAGUCAAGGGAGCGGCGAAAGUCACACAAACCGG — higher, 0.0254
- GUGCCUUGCGCCGGGAAACCACGCAAGGGAUGGUGUCAAAUUCGGCGAAACCUAAGCGCCCGCCCGGGCGUAUGGCAACGCGGAGCCAAGCUUCGGCGCCUGCGCCGAUGCAGGUGUAGCGACUAGACGGCACCCACCUAAGGCGAACGCUAUGGUGAAGGCAUAGUCAAGGGAGGGGCGAAAGUCACACAAACCGG — higher, 0.00796
- GUGCCUUGCGCCGGGAAACCACGCAAGGGAUGGUGUCAAAUUCGGCGAAACCUAAGCGCCCGCCCGGGCGUAUGGCAACGCGGAGCCAAGCUUCGGCGCCUGCGCCGAUGCAGGUGUAGCGACUAGACGGCACCCACCUAAGGCGAACGCUAUGGUGAAGGCAUAGUCAAGGGAGAGGCGAAAGUCACACAAACCGG — higher, 0.0223
- GUGCCUUGCGCCGGGAAACCACGCAAGGGAUGGUGUCAAAUUCGGCGAAACCUAAGCGCCCGCCCGGGCGUAUGGCAACGCGGAGCCAAGCUUCGGCGCCUGCGCCGAUGCAGGUGUAGCGACUAGACGGCACCCACCUAAGGCGAACGCUAUGGUGAAGGCAUAGUCUAGGGAGCGGCGAAAGUCACACAAACCGG — higher, 0.0158
- GUGCCUUGCGCCGGGAAACCACGCAAGGGAUGGUGUCAAAUUCGGCGAAACCUAAGCGCCCGCCCGGGCGUAUGGCAACGCGGAGCCAAGCUUCGGCGCCUGCGCCGAUGCAGGUGUAGCGACUAGACGGCACCCACCUAAGGCGAACGCUAUGGUGAAGGCAUAGUCUAGGGAGGGGCGAAAGUCACACAAACCGG — lower, 0.00614
- GUGCCUUGCGCCGGGAAACCACGCAAGGGAUGGUGUCAAAUUCGGCGAAACCUAAGCGCCCGCCCGGGCGUAUGGCAACGCGGAGCCAAGCUUCGGCGCCUGCGCCGAUGCAGGUGUAGCGACUAGACGGCACCCACCUAAGGCGAACGCUAUGGUGAAGGCAUAGUCUAGGGAGAGGCGAAAGUCACACAAACCGG — higher, 0.0139
- GUGCCUUGCGCCGGGAAACCACGCAAGGGAUGGUGUCAAAUUCGGCGAAACCUAAGCGCCCGCCCGGGCGUAUGGCAACGCGGAGCCAAGCUUCGGCGCCUGCGCCGAUGCAGGUGUAGCGACUAGACGGCACCCACCUAAGGCGAACGUUAUGGUGAAGGCAUAGUCGAGGGAGUGGCGAAAGUCACACAAACCGG — higher, 0.00759
- GUGCCUUGCGCCGGGAAACCACGCAAGGGAUGGUGUCAAAUUCGGCGAAACCUAAGCGCCCGCCCGGGCGUAUGGCAACGCGGAGCCAAGCUUCGGCGCCUGCGCCGAUGCAGGUGUAGCGACUAGACGGCACCCACCUAAGGCGAACGUUAUGGUGAAGGCAUAGUCUAGGGAGUGGCGAAAGUCACACAAACCGG — higher, 0.0124
- GUGCCUUGCGCCGGGAAACCACGCAAGGGAUGGUGUCAAAUUCGGCGAAACCUAAGCGCCCGCCCGGGCGUAUGGCAACGCGGAGCCAAGCUUCGGCGCCUGCGCCGAUGCAGGUGUAGCGACUAGACGGCACCCACCUAAGGCGAACGCUAUGGUGAAGGCAUAGUCUAGGGAGUGGCGAAAGUCACACAAACCGG — higher, 0.0139
- GUGCCUUGCGCCGGGAAACCACGCAAGGGAUGGUGUCAAAUUCGGCGAAACCUAAGCGCCCGCCCGGGCGUAUGGCAACGCGGAGCCAAGCUUCGGCGCCUGCGCCGAUGCAGGUGUAGCGACUAGACGGCACCCACCUAAGGCGAACGCUAUGGUGAAGGCAUAGUCAAGGGAGUGGCGAAAGUCACACAAACCGG — higher, 0.00871
- GUGCCUUGCGCCGGGAAACCACGCAAGGGAUGGUGUCAAAUUCGGCGAAACCUAAGCGCCCGCCCGGGCGUAUGGCAACGCGGAGCCAAGCUUCGGCGCCUGCGCCGAUGCAGGUGUAGCGACUAGACGGCACCCACCUAAGGCGAACGCUAUGGUGAAGGCAUAGUCGAGGGAGUGGCGAAAGUCACACAAACCGG — higher, 0.00771
- GUGCCUUGCGCCGGGAAACCACGCAAGGGAUGGUGUCAAAUUCGGCGAAACCUAAGCGCCCGCCCGGGCGUAUGGCAACGCGGAGCCAAGCUUCGGCGCCUGCGCCGAUGCAGGUGUAGCGACUAGACGGCACCCACCUAAGGCGAACGCUAUGGUGAAGGCAUAGUCGAGGGAGAGGCGAAAGUCACACAAACCGG — higher, 0.0188
- GUGCCUUGCGCCGGGAAACCACGCAAGGGAUGGUGUCAAAUUCGGCGAAACCUAAGCGCCCGCCCGGGCGUAUGGCAACGCGGAGCCAAGCUUCGGCGCCUGCGCCGAUGCAGGUGUAGCGACUAGACGGCACCCACCUAAGGCGAACGCUAUGGUGAAGGCAUAGUCGAGGGAGCGGCGAAAGUCACACAAACCGG — higher, 0.0253
- GUGCCUUGCGCCGGGAAACCACGCAAGGGAUGGUGUCAAAUUCGGCGAAACCUAAGCGCCCGCCCGGGCGUAUGGCAACGCGGAGCCAAGCUUCGGCGCCUGCGCCGAUGCAGGUGUAGCGACUAGACGGCACCCACCUAAGGCUAACGCUAUGGUGAAGGCAUAGUCCAGGGAGUGGCGAAAGUCACACAAACCGG — higher, 0.0547
- GUGCCUUGCGCCGGGAAACCACGCAAGGGAUGGUGUCAAAUUCGGCGAAACCUAAGCGCCCGCCCGGGCGUAUGGCAACGCGGAGCCAAGCUUCGGCGCCUGCGCCGAUGCAGGUGUAGCGACUAGACGGCACCCACCUAAGGCGAACGUUAUGGUGAAGGCAUAGUCGAGGGAGCGGCGAAAGUCACACAAACCGG — higher, 0.0162
- GUGCCUUGCGCCGGGAAACCACGCAAGGGAUGGUGUCAAAUUCGGCGAAACCUAAGCGCCCGCCCGGGCGUAUGGCAACGCGGAGCCAAGCUUCGGCGCCUGCGCCGAUGCAGGUGUAGCGACUAGACGGCACCCACCUAAGGCGAACGUUAUGGUGAAGGCAUAGUCGAGGGAGAGGCGAAAGUCACACAAACCGG — higher, 0.0122
- GUGCCUUGCGCCGGGAAACCACGCAAGGGAUGGUGUCAAAUUCGGCGAAACCUAAGCGCCCGCCCGGGCGUAUGGCAACGCGGAGCCAAGCUUCGGCGCCUGCGCCGAUGCAGGUGUAGCGACUAGACGGCACCCACCUAAGGCGAACGUUAUGGUGAAGGCAUAGUCGAGGGAGGGGCGAAAGUCACACAAACCGG — higher, 0.00699
